Measurements: publication PMC11109279, “Heliorhodopsin-mediated light-modulation of ABC transporter” (Nature Communications, 2024)
Residue numbers refer to the chain shown, from its start.

What was measured:
OmrDE [1] = biological target: T1, OmrDE (Ornithinimicrobium cerasi, UniProt A0A285VW85+A0A285VWG3); experiment: ATP hydrolysis, colorimetric Pi (phosphomolybdate); assay type: biochemical
T1 construct: gene SAMN05421879_12812; co-expressed heterodimer of two half-transporters; codon-optimized, E. coli C43(DE3), DDM-solubilized, Ni-NTA

[2] = biological target: heterodimeric multidrug resistance ABC transporter OmrDE (Omithinimicrobium cerasi strain USBA17B2); experiment: ITC; OcHeR injected into the Omr protein; 25 °C, 500 rpm; buffer SD; MicroCal ITC200; one site binding model (sequential binding site model for R233Q); perfect saturation was not achieved
OcHeR = biological target: T2, OcHeR (Ornithinimicrobium cerasi, UniProt A0A285W045); experiment: UV-visible absorption spectroscopy of purified pigment; assay type: binding; settings: covalent; Schiff base to K252; neutral pH
T2 construct: gene SAMN05421879_12810; purified from E. coli C43(DE3) grown with all-trans-retinal; DDM, Ni-NTA; homodimer
T2 sequence (A0A285W045 1-266): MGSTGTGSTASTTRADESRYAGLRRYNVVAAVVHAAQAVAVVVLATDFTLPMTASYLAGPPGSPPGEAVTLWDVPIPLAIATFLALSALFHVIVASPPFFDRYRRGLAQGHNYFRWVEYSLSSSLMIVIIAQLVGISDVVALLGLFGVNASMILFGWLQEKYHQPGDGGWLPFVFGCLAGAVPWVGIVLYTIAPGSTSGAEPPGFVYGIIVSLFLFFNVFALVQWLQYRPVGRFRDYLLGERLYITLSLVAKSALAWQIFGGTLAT

OmrDE with OcHeR WT = biological target: T3, OmrDE with OcHeR WT (Ornithinimicrobium cerasi, UniProt A0A285VW85+A0A285VWG3); experiment: ATP hydrolysis, colorimetric Pi (phosphomolybdate); assay type: biochemical; settings: read-out: Km (mM, ATP); Mg-ATP (MgSO4:ATP 1.5:1), pH 7.0, 25 °C, 0.02% DDM; OcHeR WT 1:1, dark
T3 construct: gene SAMN05421879_12812; E. coli C43(DE3), DDM, Ni-NTA; with Heliorhodopsin
T3 sequence (A0A285VW85 1-577): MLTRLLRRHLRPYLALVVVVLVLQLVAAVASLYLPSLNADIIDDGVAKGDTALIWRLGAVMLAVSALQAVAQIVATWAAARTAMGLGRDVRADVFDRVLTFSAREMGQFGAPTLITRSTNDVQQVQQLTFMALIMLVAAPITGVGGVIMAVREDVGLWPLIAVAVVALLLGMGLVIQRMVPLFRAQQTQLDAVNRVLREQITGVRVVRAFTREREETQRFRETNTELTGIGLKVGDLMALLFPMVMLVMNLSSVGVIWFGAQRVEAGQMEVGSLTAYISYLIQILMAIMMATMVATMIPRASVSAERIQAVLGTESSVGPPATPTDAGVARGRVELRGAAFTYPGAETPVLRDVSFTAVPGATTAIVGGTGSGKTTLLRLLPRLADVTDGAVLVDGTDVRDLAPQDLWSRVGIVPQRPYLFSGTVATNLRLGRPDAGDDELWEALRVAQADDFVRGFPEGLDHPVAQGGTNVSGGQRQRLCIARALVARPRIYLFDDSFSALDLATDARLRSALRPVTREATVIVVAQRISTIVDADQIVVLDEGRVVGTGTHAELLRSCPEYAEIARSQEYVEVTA
T3 sequence (A0A285VWG3 1-661): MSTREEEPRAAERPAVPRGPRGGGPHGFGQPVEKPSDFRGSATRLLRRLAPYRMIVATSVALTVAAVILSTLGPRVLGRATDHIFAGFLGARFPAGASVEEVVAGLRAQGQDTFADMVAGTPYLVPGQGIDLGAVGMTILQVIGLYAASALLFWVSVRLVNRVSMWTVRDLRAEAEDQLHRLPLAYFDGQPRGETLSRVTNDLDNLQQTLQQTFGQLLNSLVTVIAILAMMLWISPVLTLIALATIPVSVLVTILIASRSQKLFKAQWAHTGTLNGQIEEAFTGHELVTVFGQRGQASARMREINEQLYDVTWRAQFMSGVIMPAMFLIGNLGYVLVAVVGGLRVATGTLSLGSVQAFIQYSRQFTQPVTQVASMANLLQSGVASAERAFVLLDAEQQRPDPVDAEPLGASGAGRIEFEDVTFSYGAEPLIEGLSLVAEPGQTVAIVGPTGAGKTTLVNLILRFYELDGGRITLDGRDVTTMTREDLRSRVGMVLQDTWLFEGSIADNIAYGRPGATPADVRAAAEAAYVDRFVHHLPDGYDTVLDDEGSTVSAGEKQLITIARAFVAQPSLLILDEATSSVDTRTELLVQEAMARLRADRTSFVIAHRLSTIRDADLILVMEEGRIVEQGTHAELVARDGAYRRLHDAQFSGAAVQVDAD
T3 sequence (A0A285W045 1-266 partner): T2 sequence (A0A285W045 1-266)
Text: ATP hydrolysis, colorimetric Pi (phosphomolybdate) on OmrDE with OcHeR WT

OmrDE [3] = biological target: T1, OmrDE; experiment: ATP hydrolysis, colorimetric Pi (phosphomolybdate); assay type: biochemical; settings: read-out: Km (mM, ATP); Mg-ATP (MgSO4:ATP 1.5:1), pH 7.0, 25 °C, 0.02% DDM; no OcHeR
Text: ATP hydrolysis, colorimetric Pi (phosphomolybdate) on OmrDE

Glu118 (position 118, …) = experiment: UV-vis; settings: not stated for the titration. Purified protein was kept in buffer SD with 150 mM NaCl.; not stated for the titration. Purification buffer SD was 150 mM NaCl, 50 mM Tris-HCl pH 7.0, 0.02% DDM. pH was adjusted by adding HCl and NaOH.; Dark/ground state, retinal-bound, detergent-solubilised, without OmrDE
[4] = biological target: T4, heterodimeric multidrug resistance ABC transporter OmrDE (Omithinimicrobium cerasi strain USBA17B2, UniProt A0A285VW85 1-577; A0A285VWG3 1-661); experiment: cell-based or functional assay
T4 sequence (looked up) 1: T3 sequence (A0A285VW85 1-577)
T4 sequence (looked up) 2: T3 sequence (A0A285VWG3 1-661)

[5] = biological target: T5, Omithinimicrobium cerasi strain USBA17B2 heliorhodopsin (OcHeR) WT (Omithinimicrobium cerasi strain USBA17B2, UniProt A0A285W045 1-266, retinal Schiff base linked to K252); experiment: ITC; OcHeR injected into the Omr protein; 25 °C, 500 rpm; buffer SD; MicroCal ITC200; one site binding model (sequential binding site model for R233Q); perfect saturation was not achieved; settings: both partners purified
T5 construct: gene codon-optimized for E. coli and chemically synthesized; source: E. coli C43 (DE3), purified (DDM-solubilized membrane fraction, Ni2+-NTA agarose)
T5 sequence (looked up): T2 sequence (A0A285W045 1-266)

Question: Which IC50 (OmrDE [1]) does the source give for N=C(N)c1ccc(-c2cc3ccc(C(=N)N)cc3[nH]2)cc1 [DAPI] here?
Answer: The IC50 was 47.4 µM.

Question: Which results are given for OcHeR R229Q (natural protein)?
Answer: Kd [2]: 5.1 µM; dH [2]: 8.6 kcal/mol

Question: OcHeR R233Q (natural protein) was tested. Which Kd of the first binding (sequential binding site model) [2] did it give?
Answer: The Kd of the first binding (sequential binding site model) was 42.9 µM.

Question: And the Kd of the second binding (sequential binding site model) [2]?
Answer: Its Kd of the second binding (sequential binding site model) is 25.3 µM.

Question: And the dH of the first binding (sequential binding site model) [2]?
Answer: The dH of the first binding (sequential binding site model) was 5.9 kcal/mol.

Question: What about the dH of the second binding (sequential binding site model) [2] of the same molecule?
Answer: The dH of the second binding (sequential binding site model) was 38.7 kcal/mol.

Question: Which results are given for OcHeR W225A (natural protein)?
Answer: Kd [2]: 16.9 µM; dH [2]: 11.8 kcal/mol

Question: Which Kd [2] does the source give for OcHeR R235Q (natural protein) here?
Answer: The Kd was 26 µM.

Question: And the dH [2]?
Answer: The dH was 2.4 kcal/mol.

Question: With CC1=C(/C=C/C(C)=C/C=C/C(C)=C/C=O)C(C)(C)CCC1 [all-trans-retinal] as the molecule, how does the retinal attachment site (OcHeR) read?
Answer: The retinal attachment site was “retinal Schiff base linked to K252 of OcHeR”.

Question: For Nc1ncnc2c1ncn2[C@@H]1O[C@H](COP(=O)(O)OP(=O)(O)OP(=O)(O)O)[C@@H](O)[C@H]1O [ATP], which Km (OmrDE with OcHeR WT) is on record?
Answer: Its Km is 10.4 ± 7 mM.

Question: What about the Km (OmrDE [3]) of the same molecule?
Answer: The Km was 19.2 ± 12.3 mM.

B1: Heliorhodopsin OcHeR (Ornithinimicrobium cerasi strain USBA17B2 (spelled 'Omithinimicrobium cerasi' in the main text)) (protein)
chain: T2 sequence (A0A285W045 1-266)
Question: With B1 as the molecule, how does the pKa (Glu118 (position 118, …)) read?
Answer: Its pKa is 2.9.

B2: OcHeR R102Q (natural protein)
chain: T2 sequence (A0A285W045 1-266) with R102Q
modifications: retinal Schiff base linked to K252
Question: Which “kcat/Km of ATP hydrolysis of purified OmrDE with OcHeR R102Q (1:1), absence of light” value [4] does the source give for B2 here?
Answer: The value was 21.4 M^−1 S^−1.

Question: And the “kcat/Km of ATP hydrolysis of purified OmrDE with OcHeR R102Q (1:1), presence of light (532 nm)” value [4]?
Answer: The value was 18.1 M^−1 S^−1.

B3: NBD-truncated OmrDE (OmrD^tcE^tc) (complex)
chain 1: MLTRLLRRHLRPYLALVVVVLVLQLVAAVASLYLPSLNADIIDDGVAKGDTALIWRLGAVMLAVSALQAVAQIVATWAAARTAMGLGRDVRADVFDRVLTFSAREMGQFGAPTLITRSTNDVQQVQQLTFMALIMLVAAPITGVGGVIMAVREDVGLWPLIAVAVVALLLGMGLVIQRMVPLFRAQQTQLDAVNRVLREQITGVRVVRAFTREREETQRFRETNTELTGIGLKVGDLMALLFPMVMLVMNLSSVGVIWFGAQRVEAGQMEVGSLTAYISYLIQILMAIMMATMVATMIPRASVSAERIQAVLGTESSVGPPATPTDAGVARGR
chain 2: MSTREEEPRAAERPAVPRGPRGGGPHGFGQPVEKPSDFRGSATRLLRRLAPYRMIVATSVALTVAAVILSTLGPRVLGRATDHIFAGFLGARFPAGASVEEVVAGLRAQGQDTFADMVAGTPYLVPGQGIDLGAVGMTILQVIGLYAASALLFWVSVRLVNRVSMWTVRDLRAEAEDQLHRLPLAYFDGQPRGETLSRVTNDLDNLQQTLQQTFGQLLNSLVTVIAILAMMLWISPVLTLIALATIPVSVLVTILIASRSQKLFKAQWAHTGTLNGQIEEAFTGHELVTVFGQRGQASARMREINEQLYDVTWRAQFMSGVIMPAMFLIGNLGYVLVAVVGGLRVATGTLSLGSVQAFIQYSRQFTQPVTQVASMANLLQSGVASAERAFVLLDAEQQRPDPVDAEPLGASGAGR
Question: For B3, which Kd [5] is on record?
Answer: The Kd was 38.9 µM.
